{"source": "paper PMC5652298", "about": "(Nature structural & molecular biology, 2017)", "key": {"[1]": {"biological_target": "wild-type Shaker K+ channel with N-type inactivation removed (UniProt P08510)", "assay": "[…]"}, "[2]": {"biological_target": "3/4V478W mutant Shaker concatemer channel", "assay": "[…]"}}, "data": [{"molecule": "wild-type AgTx2 (from UniProt P46111 1-38) (peptide)", "values": [{"measurement": "Kd", "setting": "[1]", "value": 2.5, "unit": "nM"}]}, {"molecule": "GVPINVSCTGSPQCIKPCKDAGMRFGKCMNRKCHCTPK", "note": "[wild-type AgTx2]", "values": [{"measurement": "Kd", "setting": "[2]", "value": 9.2, "unit": "nM"}]}]}
